The target in this assay is paclitaxel-stabilised microtubule polymerised from bovine αβ-tubulin (bovine) (UniProt Q6B856).
Sequence of UniProt Q6B856 (Q6B856 whole entry, looked up): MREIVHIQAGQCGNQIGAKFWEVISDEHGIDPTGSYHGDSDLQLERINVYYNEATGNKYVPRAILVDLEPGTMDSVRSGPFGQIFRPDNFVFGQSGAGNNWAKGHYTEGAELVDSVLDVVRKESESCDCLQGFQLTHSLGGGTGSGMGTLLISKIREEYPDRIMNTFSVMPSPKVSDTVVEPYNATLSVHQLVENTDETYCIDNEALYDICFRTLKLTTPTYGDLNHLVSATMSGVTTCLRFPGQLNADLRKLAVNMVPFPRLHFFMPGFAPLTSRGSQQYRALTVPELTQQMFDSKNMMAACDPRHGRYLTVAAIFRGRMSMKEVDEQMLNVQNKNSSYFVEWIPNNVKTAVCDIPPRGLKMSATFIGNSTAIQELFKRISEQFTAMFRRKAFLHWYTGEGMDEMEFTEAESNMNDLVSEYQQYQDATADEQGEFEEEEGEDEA

For “human kinesin-1 (Kin1) motor domain construct (Kif5A, residues 1–340) (from UniProt Q12840 1-340) (domain or fragment)”, the K (0.5 MT) of the steady-state MT-activated ATPase (10 nM motor domain, paclitaxel-stabilised MTs, 20°C) turned out to be 12.7 µM.

B1: human kinesin-3 (Kin3) motor domain construct (Kif1A, residues 1–361) (domain or fragment)
chain: MAGASVKVAVRVRPFNSREMSRDSKCIIQMSGSTTTIVNPKQPKETPKSFSFDYSYWSHTSPEDINYASQKQVYRDIGEEMLQHAFEGYNVCIFAYGQTGAGKSYTMMGKQEKDQQGIIPQLCEDLFSRINDTTNDNMSYSVEVSYMEIYCERVRDLLNPKNKGNLRVREHPLLGPYVEDLSKLAVTSYNDIQDLMDSGNKARTVAATNMNETSSRSHAVFNIIFTQKRHDAETNITTEKVSKISLVDLAGSERADSTGAKGTRLKEGANINKSLTTLGKVISALAEMDSGPNKNKKKKKTDFIPYRDSVLTWLLRENLGGNSRTAMVAALSPADINYDETLSTLRYADRAKQIRCNAVIN
B1: the K (0.5 MT) of the steady-state MT-activated ATPase (10 nM motor domain, paclitaxel-stabilised MTs, 20°C) amounted to 0.0537 µM.
